Numbering of substitutions follows the chain as printed.
B1: SD12 monoclonal antibody (human IgG1) (antibody, V domains shown)
VH: EVQLLESGGGLVQPGGSLRLSCAASGFIFSSYAMSWVRQAPGKGLEWVSAISGSGGSTYYADSVKGRFTISRDNSKNTLYLQMNSLRDEDTAVYYCAKDRSYVSSGFFDDWGQGTLVTVSS
VL: DIQMTQSPSSLSASVGDRVTITCQASQDISNYLNWYQQRPGKAPKLLIFEASNLETGVPSRFSGSGSGTDFTFTISSLQPEDIATYYCQQYENLLYTFGQGTKLEIK
notes: IgG1; also called mAb SD12
B2: SD12 Fab (Fab, V domains shown)
VH: B1 VH
VL: B1 VL
notes: source: purified
B3: SD22 monoclonal antibody (human IgG1) (antibody, V domains shown)
VH: QVQLVESGGGVVQPGRSLRLSCAASGFTFSGFGMHWVRQAPGKGLEWVALISYDGSDTYYSDSVKGRFTISRDNSKNTLYLQLKSLRPDDTAVYYCVGDRDYFGSGFFDHWGQGTLVTVSS
VL: DIQMTQSPSSLSASIGDRVTITCRASRHITNHLNWYQHKPGRAPKLLIYEASNLQAGVPSRFSGSGSGTDFTFTISSLQPEDFATYYCQQYDNLPPAFGGGTKVDIK
notes: IgG1; germline IGHV3-30; also called mAb SD22
B4: SD22 Fab (Fab, V domains shown)
VH: B3 VH
VL: B3 VL
notes: source: purified
B5: SD4 monoclonal antibody (human IgG1) (antibody, V domains shown)
VH: QVQLVESGGGVVQPGRSLRLSCAASGFPFSGYGMHWVRQAPGKGLEWVAVISYDGSEKNYADSVKGRFTISRDNSKNTLYLQMNSLRVEDTAVYYCAKDRDYYGSGFYDYWGQGTLVTVSS
VL: DIQMTQSPSSLSASVGDRVTITCQASQHISNHLNWYQQKPGTAPTLLIYEASNLETGVPSRFSGSGSGTDFSFTISSLRPEDFATYYCQQYDNFPLTFGPGTTMDIK
notes: also called mAb SD4
B6: SD4-S monoclonal antibody (human IgG1) (antibody, V domains shown)
VH: B5 VH with V12L, P28T, A61G, M83I, V88T, T91R, Y103F, Y108F
VL: DIQMTQSPSSLSASVGDRVTITCQASQDITKYLNWYQQKPGKAPKLLIFEASNLETGVPSRFSGSGSGTDFTFTISSLQPEDFATYYCQQYGDFPLTFGGGTKVEIK
B7: SD4-X monoclonal antibody (human IgG1) (antibody, V domains shown)
VH: B5 VH with P28T, G31S, E57N, N59Y, V88A, Y108F
VL: B1 VL with Y32H, Q38E, R39K, A43V, F49Y, L54V, E92D, L95P
B8: SD4 Fab (Fab, V domains shown)
VH: B5 VH
VL: B5 VL
notes: source: purified

What was measured:
Settings in all cases: both partners purified
[1] = biological target: T1, SFTSV Gn head (positions 19-337), C3 genotype (SDTA1/China) (SFTSV (Dabie bandavirus), strain SDTA1, …, UniProt A0A1S6K8S9, strain); assay: SPR
T1 construct: source: HEK293F cells (Sino Biological), purified (HisTrap, size exclusion)

[2] = biological target: T2, SFTSV Gn head (positions 19-337), C2 genotype (P24-Vero_2021/China) (SFTSV (Dabie bandavirus), strain …, strain); assay: SPR
T2 construct: source: HEK293F cells (Sino Biological), purified (HisTrap, size exclusion)

[3] = biological target: T3, SFTSV Gn head (positions 19-337), J1 genotype (KU18-5/Japan) (SFTSV (Dabie bandavirus), strain …, strain); assay: SPR
T3 construct: source: HEK293F cells (Sino Biological), purified (HisTrap, size exclusion)

[4] = biological target: T4, SFTSV Gn head (as crystallised with the Fabs) (SFTSV (Dabie bandavirus), strain SDTA1, …); assay: crystal structure
T4 construct: also called Gn protein

[5] = biological target: SFTSV Gn glycoprotein (G19-K452, C3 genotype) (SFTSV (Dabie bandavirus), strain SDTA1, …, UniProt A0A1S6K8S9, strain); assay: BLI

Binder | Kd [1] [nM] | Kd [2] [nM] | Kd [3] [nM] | binding result [4] | also measured
B1 | 87.8 | 74.1 | 60.2 |  | 
B2 |  |  |  | binds | 
B3 | 0.0542 | 0.0515 | 0.0557 |  | 
B4 |  |  |  | binds | 
B5 | 0.0827 | 0.0321 | 0.0628 |  | Kd [5]: 0.096 nM
B6 |  |  |  |  | binding result [5]: binds
B7 |  |  |  |  | binding result [5]: binds
B8 |  |  |  | binds | 
